From paper PMC11293989 (Molecular cancer therapeutics, 2024) come the findings set out here.

Assay in all cases: SPR
Assay [1] concerns the target NGM438, humanized IgG1 effector-less monoclonal antibody against LAIR1.
In assay [2] the target is LAIR1 from rat (Rattus norvegicus, UniProt P0C1X9).
Assay [3] has as its target recombinant human LAIR1-his (Homo sapiens, UniProt Q6GTX8).
Assay [4] deals with LAIR1 from mouse (Mus musculus, UniProt Q8BG84).
For assay [5], the target named is human LAIR2 (Homo sapiens, UniProt Q6ISS4).
Chain of human LAIR2 (Q6ISS4 22-152): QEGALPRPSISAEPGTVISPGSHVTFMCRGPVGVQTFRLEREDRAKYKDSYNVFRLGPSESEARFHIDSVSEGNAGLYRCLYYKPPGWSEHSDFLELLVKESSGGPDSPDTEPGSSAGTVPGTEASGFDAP

Chain of LAIR1 from rat (P0C1X9 22-263): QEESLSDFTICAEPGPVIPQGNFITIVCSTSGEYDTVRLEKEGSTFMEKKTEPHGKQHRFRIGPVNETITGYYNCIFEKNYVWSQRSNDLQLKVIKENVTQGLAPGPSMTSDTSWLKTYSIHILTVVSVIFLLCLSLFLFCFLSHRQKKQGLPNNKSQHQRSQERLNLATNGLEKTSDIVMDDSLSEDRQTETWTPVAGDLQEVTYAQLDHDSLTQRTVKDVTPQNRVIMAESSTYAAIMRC
Chain of LAIR1 from mouse (Q8BG84 22-263): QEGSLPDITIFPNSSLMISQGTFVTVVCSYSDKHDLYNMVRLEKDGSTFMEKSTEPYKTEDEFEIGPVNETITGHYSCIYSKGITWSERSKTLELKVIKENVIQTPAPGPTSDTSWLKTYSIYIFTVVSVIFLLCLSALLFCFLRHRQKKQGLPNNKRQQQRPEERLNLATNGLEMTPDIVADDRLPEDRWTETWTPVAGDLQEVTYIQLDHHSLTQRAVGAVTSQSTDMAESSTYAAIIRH
Chain of recombinant human LAIR1-his (Q6GTX8 22-287): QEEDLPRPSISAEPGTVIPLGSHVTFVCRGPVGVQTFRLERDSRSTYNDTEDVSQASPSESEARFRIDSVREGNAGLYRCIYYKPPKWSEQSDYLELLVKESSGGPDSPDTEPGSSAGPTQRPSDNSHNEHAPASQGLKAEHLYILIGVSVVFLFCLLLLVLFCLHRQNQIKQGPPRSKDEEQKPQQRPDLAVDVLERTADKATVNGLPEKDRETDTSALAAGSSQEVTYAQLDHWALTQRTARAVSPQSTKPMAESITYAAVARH

For “recombinant cynomolgus monkey LAIR1-his (receptor)”, in assay [1], the Kd (as a rule, a measure of binding affinity in units of concentration) worked out at 4.28 nM.

B1: NGM438, humanized IgG1 effector-less monoclonal antibody against LAIR1 (antibody, V domains shown)
VH: EVQLVESGGGLVQPGGSLRLSCAASGFTFNINAMNWVRQAPGKGLEWVARIRTKNYNYATFYADSVKDRFTISRDDSKNSLYLQMNSLKTEDTAVYYCVRDRAGFFAYWGQGTTVTVSS
VL: DIQMTQSPSSLSASVGDRVTITCLASQTIGTWLGWYQQKPGKAPKLLIYAATSLAEGVPSRFSGSGSGTDFTLTISSLQPEDFATYYCQQLYSTPLTFGGGTKVEIK
For B1, the binding result in assay [2], in assay [4] and in assay [5] was “no binding” in each case. Besides, the Kd in assay [3] came to 0.26 ± 0.03 nM.
